Test results as given in US20250320281A1.

Experiments:
Experiment in all cases: cell-based or functional assay
[1] = target: HIV-1 Env of isolate MGRM-F1-023 (HIV-1)
[2] = target: HIV-1 Env of isolate 92UG024 (pseudovirus) (HIV-1)
[3] = target: HIV-1 Env of isolate MGRM-D-028 (pseudovirus) (HIV-1)
[4] = target: HIV-1 Env of isolate 92UG001 (pseudovirus) (HIV-1)
[5] = target: HIV-1 MGRM-A-010 Env (pseudovirus, clade A) (HIV-1)
[6] = target: HIV-1 Env of isolate MGRM-AE-004 (HIV-1)
[7] = target: HIV-1 Env of isolate MGRM-AE-007 (HIV-1)
[8] = target: HIV-1 Env of isolate MGRM-D-018 (clade D), on pseudovirus (HIV-1)
[9] = target: HIV-1 Env of isolate MGRM-D-029 (pseudovirus) (HIV-1)
[10] = target: HIV-1 APV17 Env (pseudovirus) (HIV-1)
[11] = target: HIV-1 Env of isolate MGRM-D-014 (pseudovirus) (HIV-1)
[12] = target: HIV-1 Env of isolate 6535.3 (subtype B pseudovirus) (HIV-1)
[13] = target: HIV-1 Env of isolate JR-CSF (pseudovirus) (HIV-1) (UniProt P20871)
[14] = target: HIV-1 Env of isolate MGRM-Chronic-B-002 (subtype B pseudovirus) (HIV-1)
[15] = target: HIV-1 Env of isolate MGRM-C-001 (subtype C) (HIV-1)
[16] = target: HIV-1 Env of isolate 93IN905 (subtype C) (HIV-1)
[17] = target: HIV-1 Env of isolate 98CN009 (HIV-1)
[18] = target: HIV-1 envelope glycoprotein (Env) of isolate MGRM-C-010 (HIV-1)
[19] = target: HIV-1 Env of isolate SC422661.8 (subtype B) (HIV-1)
[20] = target: HIV-1 Env of isolate 92RW008 (HIV-1)
[21] = target: HIV-1 Env of isolate 98CN006 (HIV-1)
[22] = target: HIV-1 Env of isolate MGRM-Chronic-B-024 (subtype B) (HIV-1)
[23] = target: HIV-1 Env of isolate MG RM-D-016 (HIV-1)
[24] = target: HIV-1 Env of isolate TRO.11 (subtype B) (HIV-1)
[25] = target: HIV-1 Env of isolate MGRM-A-014 (subtype A) (HIV-1)
[26] = target: HIV-1 Env of isolate TRJ04551.58 (subtype B) (HIV-1)
[27] = target: HIV-1 Env of isolate MGRM-AG-008 (subtype AG) (HIV-1)
[28] = target: HIV-1 Env of isolate MGRM-A-013 (subtype A) (HIV-1)
[29] = target: HIV-1 Env of isolate MGRM-C-004 (subtype C) (HIV-1)
[30] = target: HIV-1 Env of isolate MGRM-AE-001 (subtype AE) (HIV-1)
[31] = target: HIV-1 Env of isolate THR0.18 (subtype B) (HIV-1)
[32] = target: HIV-1 Env of isolate 92UG031 (HIV-1)
[33] = target: HIV-1 envelope glycoprotein (Env) of isolate MGRM-C-006 (HIV-1)

Sequence of 5329_C19 (PGT-136) (antibody) (VH): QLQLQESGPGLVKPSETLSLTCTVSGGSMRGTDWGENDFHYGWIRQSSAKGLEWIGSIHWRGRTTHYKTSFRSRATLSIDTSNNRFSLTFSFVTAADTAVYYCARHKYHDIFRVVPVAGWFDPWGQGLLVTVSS
Sequence of 5329_C19 (PGT-136) (antibody) (VL): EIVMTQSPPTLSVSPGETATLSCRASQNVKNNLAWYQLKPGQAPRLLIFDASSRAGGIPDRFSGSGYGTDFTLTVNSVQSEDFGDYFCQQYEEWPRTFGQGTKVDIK

Substance	IC50 (µg/mL), pseudovirus neutralization [1]	IC50, pseudovirus neutralization [2]	IC50, pseudovirus neutralization [3]	IC50, pseudovirus neutralization [4]	IC50 neutralization [5]	IC50 [6]	IC50 [7]	IC50, pseudovirus neutralization [8]	IC50, pseudovirus neutralization [9]	neutralization IC50 (pseudovirus) [10]	IC50, pseudovirus neutralization [11]	IC50 (µg/mL), pseudovirus neutralization [12]	Primary Neutralization Index (B cell culture supernatant) [13]	IC50 (µg/mL), pseudovirus neutralization [14]	Polyclonal Transfectant Neutralization Index [13]	IC50 neutralization [15]	IC50 neutralization [16]	IC50 (µg/mL), pseudovirus neutralization [17]	IC50 (µg/mL), pseudovirus neutralization [18]	IC50 neutralization [19]	further results
4858_P08 (PGT-123) (antibody)	0.053 µg/mL	> 50 µg/mL	0.132 µg/mL	> 50 µg/mL	0.492 µg/mL	> 50 µg/mL	> 50 µg/mL	0.0047 µg/mL	> 50 µg/mL	0.18 µg/mL	0.009 µg/mL	0.004 µg/mL	1.6	0.234 µg/mL	–	–	–	–	–	–	–
4877_D15 (PGT-122) (antibody)	0.154 µg/mL	> 50 µg/mL	3.34 µg/mL	> 50 µg/mL	1.68 µg/mL	> 50 µg/mL	> 50 µg/mL	0.0115 µg/mL	> 50 µg/mL	0.522 µg/mL	0.012 µg/mL	0.006 µg/mL	–	1.8 µg/mL	–	–	–	–	–	–	–
5145_B14 (PGT-127) (antibody)	0.119 µg/mL	> 50 µg/mL	> 50 µg/mL	> 50 µg/mL	–	> 50 µg/mL	> 50 µg/mL	–	> 50 µg/mL	–	0.393 µg/mL	0.02 µg/mL	31.1	0.279 µg/mL	1.61	–	–	–	–	–	–
4838_L06 (PGT-121) (antibody)	0.097 µg/mL	> 50 µg/mL	0.009 µg/mL	> 50 µg/mL	–	> 50 µg/mL	> 50 µg/mL	–	> 50 µg/mL	–	0.009 µg/mL	0.005 µg/mL	–	0.386 µg/mL	–	–	–	–	–	–	–
5123_A06 (PGT-125) (antibody)	0.12 µg/mL	> 50 µg/mL	> 50 µg/mL	> 50 µg/mL	0.0055 µg/mL	> 50 µg/mL	0.876 µg/mL	0.0382 µg/mL	> 50 µg/mL	7.31 µg/mL	> 50 µg/mL	0.01 µg/mL	1730	0.064 µg/mL	119	–	–	–	–	–	–
5343_B08 (PGT-135) (antibody)	–	–	–	–	> 10 µg/mL	–	–	0.0433 µg/mL	–	–	–	–	1.8	–	–	10.1 µg/mL	0.011 µg/mL	0.071 µg/mL	> 50 µg/mL	21.8 µg/mL	IC50 [20]: 1.42 µg/mL; IC50 (µg/mL), pseudovirus neutralization [21]: 0.429 µg/mL; IC50 neutralization [22]: > 50 µg/mL; IC50 (µg/mL), pseudovirus neutralization [23]: > 50 µg/mL; IC50 neutralization [24]: 0.03 µg/mL; IC50 (µg/mL), pseudovirus neutralization [25]: 0.636 µg/mL; IC50 neutralization [26]: > 50 µg/mL; IC50 (µg/mL), pseudovirus neutralization [27]: > 50 µg/mL; IC50 (µg/mL), pseudovirus neutralization [28]: > 50 µg/mL; IC50 neutralization [29]: 0.046 µg/mL; IC50 (neutralizing activity, pseudovirus) [10]: > 10 µg/mL; IC50 (µg/mL), pseudovirus neutralization [30]: > 50 µg/mL; IC50 neutralization [31]: > 50 µg/mL; IC50 [32]: > 50 µg/mL; IC50 (µg/mL), pseudovirus neutralization [33]: > 50 µg/mL
5141_B17 (PGT-126) (antibody)	0.009 µg/mL	> 50 µg/mL	> 50 µg/mL	> 50 µg/mL	0.0033 µg/mL	> 50 µg/mL	> 50 µg/mL	0.0093 µg/mL	> 50 µg/mL	0.501 µg/mL	0.03 µg/mL	0.022 µg/mL	1410	0.078 µg/mL	102	–	–	–	–	–	–
5329_C19 (PGT-136) (antibody)	–	–	–	–	> 10 µg/mL	–	–	> 10 µg/mL	–	–	–	–	0.9	–	–	7.52 µg/mL	0.011 µg/mL	0.428 µg/mL	> 50 µg/mL	> 50 µg/mL	IC50 [20]: > 50 µg/mL; IC50 (µg/mL), pseudovirus neutralization [21]: 0.406 µg/mL; IC50 neutralization [22]: > 50 µg/mL; IC50 (µg/mL), pseudovirus neutralization [23]: > 50 µg/mL; IC50 neutralization [24]: 0.073 µg/mL; IC50 (µg/mL), pseudovirus neutralization [25]: > 50 µg/mL; IC50 neutralization [26]: > 50 µg/mL; IC50 (µg/mL), pseudovirus neutralization [27]: > 50 µg/mL; IC50 (µg/mL), pseudovirus neutralization [28]: > 50 µg/mL; IC50 neutralization [29]: 0.034 µg/mL; IC50 (neutralizing activity, pseudovirus) [10]: > 10 µg/mL; IC50 (µg/mL), pseudovirus neutralization [30]: > 50 µg/mL; IC50 neutralization [31]: > 50 µg/mL; IC50 [32]: > 50 µg/mL; IC50 (µg/mL), pseudovirus neutralization [33]: > 50 µg/mL
5147_N06 (PGT-130) (antibody)	–	–	–	–	0.0054 µg/mL	–	–	0.0378 µg/mL	–	> 10 µg/mL	–	–	19.3	–	1.24	> 50 µg/mL	0.02 µg/mL	0.136 µg/mL	> 50 µg/mL	> 50 µg/mL	IC50 [20]: 0.089 µg/mL; IC50 (µg/mL), pseudovirus neutralization [21]: 0.258 µg/mL; IC50 neutralization [22]: 5.78 µg/mL; IC50 (µg/mL), pseudovirus neutralization [23]: > 50 µg/mL; IC50 neutralization [24]: 0.257 µg/mL; IC50 (µg/mL), pseudovirus neutralization [25]: 0.161 µg/mL; IC50 neutralization [26]: 0.023 µg/mL; IC50 (µg/mL), pseudovirus neutralization [27]: > 50 µg/mL; IC50 (µg/mL), pseudovirus neutralization [28]: > 50 µg/mL; IC50 neutralization [29]: 2.76 µg/mL; Neutralization by PGT-130, IC50 [10]: > 10 µg/mL; Neutralization by PGT-130, IC80 [10]: > 10 µg/mL; Neutralization by PGT-130, IC90 [10]: > 10 µg/mL; Neutralization by PGT-130, IC95 [10]: > 10 µg/mL; IC50 (µg/mL), pseudovirus neutralization [30]: 1 µg/mL; IC50 neutralization [31]: > 50 µg/mL; IC50 [32]: > 50 µg/mL; IC50 (µg/mL), pseudovirus neutralization [33]: 0.095 µg/mL
